Assay results as given in article PMC3616705 (Nucleic Acids Research, 2013).

What was measured:
AUC = molecular target: the molecule itself; test: AUC
[1] = molecular target: Los1p·Gsp1p export complex (GST-Los1p together with GST-Gsp1p on glutathione resin) (yeast, UniProt P33418 1-1100; P32835 1-219); test: pull-down

Binder | binding result [1] | stoichiometry N (AUC)
Cex1pΔC-SER (residues 9-564, E535A/K536A/E537A), His tag removed (domain or fragment, Saccharomyces cerevisiae, UniProt Q12453 9-564, looked up) SISNFQFPYTIEETAITETALWQCFDGTRKADSLPVTVFKAKRSPENESLILNAVHKSKILKIPGLCTVLETFDSDPQSTFIVTERVVPFPWDNLGSLSQNKFGVELGISQLLATLGFLKNFVLGTLSKDSVFINIKGEWVLFGLELCSSKEGLSAFEFASRARSYYNIIGSQLPCEDPNTIDSMGLGLLIKSLMAPSCLPKDWIVNVNMISDGKITIENFRKRLENTETWRSNPLINFYQELRELHIKDPQGKLVVMSNLENLYLESREIFRNLTPGMIENFIIPELCEIIKLLMTQSISSAASPIGMNFNASHKLVPFLAIVLDLTSETNTFPVGFNDLITQSFKLPDRQVRFLLLIYLPKLIGPLSKSEISSRIYPHFIQGLTDSDATLRLQTLKTIPCIVSCLTERQLNNELLRFLAKTQVDSDVEIRTWTVIIISKISTILSTSVGNRSNILATAFTKSLKDPQVKPRLAALYGLEKSIELFDVNTIANKILTVIAPGLLDKSPIVRGRAKILFEEYLEKLAAAAQLIQTNDSTADSEDVKDIDFENYGCD |  | 2
Cex1p9-358 (N-terminal kinase-like domain of Cex1p), N-terminal His tag (domain or fragment, Saccharomyces cerevisiae, UniProt Q12453 9-358, looked up) SISNFQFPYTIEETAITETALWQCFDGTRKADSLPVTVFKAKRSPENESLILNAVHKSKILKIPGLCTVLETFDSDPQSTFIVTERVVPFPWDNLGSLSQNKFGVELGISQLLATLGFLKNFVLGTLSKDSVFINIKGEWVLFGLELCSSKEGLSAFEFASRARSYYNIIGSQLPCEDPNTIDSMGLGLLIKSLMAPSCLPKDWIVNVNMISDGKITIENFRKRLENTETWRSNPLINFYQELRELHIKDPQGKLVVMSNLENLYLESREIFRNLTPGMIENFIIPELCEIIKLLMTQSISSAASPIGMNFNASHKLVPFLAIVLDLTSETNTFPVGFNDLITQSFKLPD | binds | 2

Now from value to binder, other results behind:

binding result [1] | Binder | stoichiometry N (AUC)
binds | wild-type, full-length Cex1p (cytoplasmic export protein), N-terminal His tag (natural protein, Saccharomyces cerevisiae, UniProt Q12453 1-761, looked up) MNFSSIFKSISNFQFPYTIEETAITETALWQCFDGTRKADSLPVTVFKAKRSPENESLILNAVHKSKILKIPGLCTVLETFDSDPQSTFIVTERVVPFPWDNLGSLSQNKFGVELGISQLLATLGFLKNFVLGTLSKDSVFINIKGEWVLFGLELCSSKEGLSAFEFASRARSYYNIIGSQLPCEDPNTIDSMGLGLLIKSLMAPSCLPKDWIVNVNMISDGKITIENFRKRLENTETWRSNPLINFYQELRELHIKDPQGKLVVMSNLENLYLESREIFRNLTPGMIENFIIPELCEIIKLLMTQSISSAASPIGMNFNASHKLVPFLAIVLDLTSETNTFPVGFNDLITQSFKLPDRQVRFLLLIYLPKLIGPLSKSEISSRIYPHFIQGLTDSDATLRLQTLKTIPCIVSCLTERQLNNELLRFLAKTQVDSDVEIRTWTVIIISKISTILSTSVGNRSNILATAFTKSLKDPQVKPRLAALYGLEKSIELFDVNTIANKILTVIAPGLLDKSPIVRGRAKILFEEYLEKLEKEAQLIQTNDSTADSEDVKDIDFENYGCDEEDMNKEDNLLAAQFLNNLRLNSPSATTPSNITESEIDSAQDGSGWDDLSDTDGFITNGTTESFDETTNPVTTASTPKLFGKPIKINKSWNDELNDDGWIQDESGPSKVPQKHTRPQNSTLAKSIAPSSRLSIKKKKTTILAPRNIASNSTVTTKSSLSNKTARSKPISSIRGSVTKKGNVDGWDDDGDSDSWDTNW | 2
binds | Cex1pΔC-SER (residues 9-564, E535A/K536A/E537A) with N-terminal His tag, as used in the pull-down (domain or fragment, Saccharomyces cerevisiae, UniProt Q12453 9-564, looked up) SISNFQFPYTIEETAITETALWQCFDGTRKADSLPVTVFKAKRSPENESLILNAVHKSKILKIPGLCTVLETFDSDPQSTFIVTERVVPFPWDNLGSLSQNKFGVELGISQLLATLGFLKNFVLGTLSKDSVFINIKGEWVLFGLELCSSKEGLSAFEFASRARSYYNIIGSQLPCEDPNTIDSMGLGLLIKSLMAPSCLPKDWIVNVNMISDGKITIENFRKRLENTETWRSNPLINFYQELRELHIKDPQGKLVVMSNLENLYLESREIFRNLTPGMIENFIIPELCEIIKLLMTQSISSAASPIGMNFNASHKLVPFLAIVLDLTSETNTFPVGFNDLITQSFKLPDRQVRFLLLIYLPKLIGPLSKSEISSRIYPHFIQGLTDSDATLRLQTLKTIPCIVSCLTERQLNNELLRFLAKTQVDSDVEIRTWTVIIISKISTILSTSVGNRSNILATAFTKSLKDPQVKPRLAALYGLEKSIELFDVNTIANKILTVIAPGLLDKSPIVRGRAKILFEEYLEKLAAAAQLIQTNDSTADSEDVKDIDFENYGCD | 
